From the supplement of paper PMC7877785
± gives the uncertainty stated by the source.

Experiment: self-splicing fitness, log relative to wild type (ln ratio); higher = more splicing; Tetrahymena group I intron in knt gene, E. coli kanamycin selection, DiMSum; sequences stand for … in CUCUCU…GGAGGGAAAAGUUAUCAGGCAUGCACCUGGUAGCUAGUCUUUAAACCAAUAGAUUGCAUCGGUUUAAAAGGCAAGACCGUCAAAUUGCGGGAAAGGGGUCAACAGCCGUUCAGUACCAAGUCUCAGGGGAAACUUUGAGAUGGCCUUGCAAAGGGUAUGGUAAUAAGCUGACGGACAUGGUCCUAACCACGCAGCCAAGUCCUAAGUCAACAGAUCUUCUGUUGAUAUGGAUGCAGUUCACAGACUAAAUGUCGGUCGGGGAAGAUGUAUUCUUCUCAUAAGAUAUAGUCGGACCUCUCCUUAAUGGGAGCUAGCGGAUGAAGUGAUGCAACACUGGAGCCGCUGGGAACUAAUUUGUAUGCGAAAGUAUAUUGAUUAGUUUUGGAGUACUCGUGGUCG
Outline: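 Fitness was computed with DiMSum as the error-weighted combination of replicate fold changes, kanamycin versus none, each normalised to wild type. The library randomised all eight intron nucleotides of the P1ex region, with the intron placed in the knt kanamycin-resistance gene on pET-22b(+) in E. coli BL21(DE3). Six replicate transformations were grown overnight at 37°C or 30°C on LB agar with or without 25 μg/mL kanamycin, plus 100 μg/mL carbenicillin, 50 μM IPTG and 0.2% rhamnose. Pooled colonies were amplicon-sequenced on an Illumina HiSeq 2500.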

Sequence | self-splicing fitness (ln) (30 °C) | self-splicing fitness (ln) (37 °C)
GGAGAGCAAUAUUACGCUAG | -1.3 ± 0.36 | -0.901 ± 0.42
GGAGAGCAAUAUUACGGGGA | -3.31 ± 0.49 | 
GGAGAGCAAUAUUACGGGUA | -3.5 ± 0.28 | -2.62 ± 0.2
GGAGAGCAAUAUUACGGUAC | -3.27 ± 0.5 | -2.07 ± 0.24
GGAGAGCAAUAUUACGUAAU |  | -0.814 ± 0.2
GGAGAGCAAUAUUACGUAGC |  | -0.906 ± 0.37
GGAGAGCAAUAUUACGUCUG | -1.13 ± 0.2 | -0.491 ± 0.25
GGAGAGCAAUAUUACGUGCU | -2.88 ± 0.27 | 
GGAGAGCAAUAUUACGUUUU | -3.36 ± 0.23 | -1.15 ± 0.3
GGAUAGCAAUAUUACGAUCC | -1.95 ± 0.45 | 
GGAUAGCAAUAUUACGCAAG | -1.28 ± 0.27 | -0.103 ± 0.34
GGAUAGCAAUAUUACGCACG | -1.12 ± 0.16 | -0.963 ± 0.15
GGAUAGCAAUAUUACGGACC | -0.822 ± 0.22 | -0.154 ± 0.25
GGAUAGCAAUAUUACGGGGC | -3.69 ± 0.23 | -1.95 ± 0.16
GGAUAGCAAUAUUACGGUCA | -0.171 ± 0.081 | -0.0595 ± 0.11
GGAUAGCAAUAUUACGGUCC |  | -2.68 ± 0.48
GGAUAGCAAUAUUACGGUUA | -0.755 ± 0.2 | 0.0186 ± 0.17
GGAUAGCAAUAUUACGUAAG | -1.87 ± 0.17 | -0.386 ± 0.2
GGAUAGCAAUAUUACGUGCG | -0.974 ± 0.094 | -0.046 ± 0.12
GGAUAGCAAUAUUACGUUGC | -4.63 ± 0.36 | -2.2 ± 0.28

Sequence | self-splicing fitness (ln) (30 °C) | self-splicing fitness (ln) (37 °C)
GGAUAGCAAUAUUACGUUUU | -1.33 ± 0.11 | -1.62 ± 0.14
GGCAAGCAAUAUUACGAAAG | -2.97 ± 0.28 | 
GGCAAGCAAUAUUACGAGCC | -2.21 ± 0.43 | -1.52 ± 0.44
GGCAAGCAAUAUUACGAGCG | -0.697 ± 0.073 | 0.427 ± 0.097
GGCAAGCAAUAUUACGAGUA | -1.52 ± 0.15 | -0.685 ± 0.13
GGCAAGCAAUAUUACGAGUG | -1.1 ± 0.069 | -0.88 ± 0.071
GGCAAGCAAUAUUACGAUUC | 0.184 ± 0.062 | 0.142 ± 0.091
GGCAAGCAAUAUUACGCACA | -0.684 ± 0.09 | 0.564 ± 0.11
GGCAAGCAAUAUUACGCCCC |  | -1.27 ± 0.35
GGCAAGCAAUAUUACGCGCA | 0.145 ± 0.077 | 0.461 ± 0.11
GGCAAGCAAUAUUACGCUUG | -3.26 ± 0.2 | -3.49 ± 0.34
GGCAAGCAAUAUUACGGAAU | -0.693 ± 0.075 | -0.506 ± 0.1
GGCAAGCAAUAUUACGGCAC | -0.671 ± 0.071 | 0.369 ± 0.12
GGCAAGCAAUAUUACGGCAG | -2.32 ± 0.14 | -1.15 ± 0.15
GGCAAGCAAUAUUACGGCAU | -0.207 ± 0.043 | 0.531 ± 0.06
GGCAAGCAAUAUUACGGUAA | -1.28 ± 0.097 | 0.108 ± 0.094
GGCAAGCAAUAUUACGGUAU | -1.17 ± 0.068 | -0.119 ± 0.077
GGCAAGCAAUAUUACGGUUG | -1.16 ± 0.063 | -0.62 ± 0.083
GGCAAGCAAUAUUACGUAGA | 0.226 ± 0.077 | 0.582 ± 0.11
GGCAAGCAAUAUUACGUAGU | -1.52 ± 0.098 | -0.197 ± 0.11
